Measured values published in the supplement of paper PMC9732359.
± gives the uncertainty stated by the source.

Assay: protein stability index of a GFP-peptide fusion (yeast GPS) (PSI 1-4); higher = more stable; sorted into four equal gates, so the index is relative within each strain
Summary of the method: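 Mid-log yeast cultures in leucine-free medium, carrying a pooled plasmid library, were sorted into four equal gates by their GFP/Cherry fluorescence ratio. Each plasmid expressed Cherry along with GFP fused upstream of a tiled 17-residue yeast protein peptide. Plasmids recovered from each gate were PCR-amplified and Illumina-sequenced, with reads assigned to strains by barcodes. The protein stability index was obtained by summing each gate's read frequency weighted by its gate number.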

| Sequence | protein stability index (doa10∆) | protein stability index (pdr5∆) | protein stability index (san1∆) | protein stability index (ubr1∆) |
| --- | --- | --- | --- | --- |
| GNVLINDTLPDEISPEL [SNU114] | 2.99 ± 0.089 | 2.77 ± 0.097 | 3.32 ± 0.081 | 2.71 ± 0.17 |
| IMDELLSSIAERVRNFA [DIB1] | 1.9 ± 0.065 | 2.27 ± 0.086 | 2.06 ± 0.084 | 2.17 ± 0.082 |
| SVRSLQKRIENGGNSVI [SRP68] | 1.7 ± 0.085 | 1.82 ± 0.064 | 2.29 ± 0.096 | 1.85 ± 0.1 |
| FAQGKRRYDRKQSGFGG [RPL42A] | 3.6 ± 0.25 | 3.57 ± 0.28 | 3.06 ± 0.29 | 3.34 ± 0.061 |
| ETIKMKELDQELIIDPL [BRN1] | 2.98 ± 0.12 | 3.04 ± 0.15 | 2.6 ± 0.26 | 3.01 ± 0.064 |
| LDIKRVGSENVECTISI [SNF12] | 2.27 ± 0.067 | 2.78 ± 0.066 | 2.56 ± 0.056 | 2.81 ± 0.065 |
| FEGCYYTPEESAWIWPM [RPC25] | – | 2.3 ± 0.21 | 2.55 ± 0.2 | 2.52 ± 0.13 |
| SGEPIIAATQDFITGSY [RPO31] | 3.36 ± 0.1 | 3.3 ± 0.095 | 3.13 ± 0.12 | 3.18 ± 0.039 |
| IKSIIEQRKQKLSKILP [SMC3] | 2.44 ± 0.084 | 2.7 ± 0.091 | 2.52 ± 0.081 | 2.82 ± 0.078 |
| SVRLQRFYQLGVDLKLK [CSN12] | 3.2 ± 0.21 | 3.13 ± 0.23 | 3.01 ± 0.24 | 3.06 ± 0.12 |
| NSLSSNLSSLIVEINNV [YJL041W/NSP1] | 2.26 ± 0.037 | 2.58 ± 0.045 | 2.35 ± 0.051 | 2.41 ± 0.033 |
| AGGGESDSALILMYKGF [UBP6] | 3.29 ± 0.091 | 3.45 ± 0.08 | 3.26 ± 0.12 | 3.35 ± 0.063 |
| LLKYSNETKKRNFLETV [RPL1A] | 3 ± 0.25 | 2.72 ± 0.23 | – | – |
| KYQKALHYLKKFKHIDD [SRP72] | 2.04 ± 0.1 | 2.96 ± 0.12 | 2.57 ± 0.17 | 2.31 ± 0.14 |
| SELQRLSHENNVMLEKI [RPT5] | 3 ± 0.11 | 3.1 ± 0.068 | 2.89 ± 0.063 | 2.9 ± 0.051 |
| NTEEVNRLEKEQSVKTQ [LIN1] | 2.21 ± 0.2 | – | – | 1.74 ± 0.27 |
| LQIESVTKETVHPRKSY [PRP8] | – | 3.02 ± 0.13 | 2.97 ± 0.054 | 3.11 ± 0.11 |
| NAISLQLKYDTSVQEKE [YIL149C/MLP2] | 2.61 ± 0.13 | 2.33 ± 0.12 | 2.75 ± 0.099 | 2.92 ± 0.07 |
| NQINSFWSLHSSTYYNL [NUT1] | 2.34 ± 0.064 | 1.75 ± 0.049 | 1.72 ± 0.073 | 1.57 ± 0.036 |
| KPNQTIMVLDASIGQAA [SRP54] | 2.44 ± 0.095 | 2.65 ± 0.075 | 2.69 ± 0.07 | 2.64 ± 0.049 |
| VDRLKIGGSLARIALRH [RPS25A] | 2.66 ± 0.13 | 2.1 ± 0.07 | 2.01 ± 0.073 | 1.8 ± 0.096 |
| HKQISAEDLTIAAKTHI [SIN4] | 3.03 ± 0.12 | 3.1 ± 0.079 | 3.35 ± 0.084 | 2.76 ± 0.088 |
| ITVRYWLNGKMDSKGKI [RGR1] | 3.27 ± 0.14 | 3.51 ± 0.15 | 3.31 ± 0.23 | – |
| KLLKVCLTMFEDRNESV [ECM29] | 2.41 ± 0.14 | 1.99 ± 0.27 | 2.58 ± 0.078 | 2.66 ± 0.16 |
| LEACIVRIMKAKRNLPH [CDC53] | 1.5 ± 0.087 | 1.61 ± 0.059 | 1.3 ± 0.13 | 1.21 ± 0.045 |
| KRTIRIKTQQHILPEVP [TAF14] | 1.92 ± 0.059 | 2.02 ± 0.049 | 2.2 ± 0.066 | 2.07 ± 0.063 |

| Sequence | protein stability index (doa10∆) | protein stability index (pdr5∆) | protein stability index (san1∆) | protein stability index (ubr1∆) |
| --- | --- | --- | --- | --- |
| KQRKNPRRIAWTVLFRK [RPL24A] | 3.03 ± 0.14 | 2.27 ± 0.1 | 1.41 ± 0.25 | 2.27 ± 0.048 |
| YSSYIYKVLKQTHPDTG [HTB1] | 2.58 ± 0.065 | 2.05 ± 0.051 | 1.7 ± 0.074 | 1.81 ± 0.045 |
| LHIHGSSNPLGITGNLD [COB] | 2.92 ± 0.087 | 2.91 ± 0.078 | 2.7 ± 0.05 | 2.66 ± 0.054 |
| WEHTAAEDQILANFVAK [SRB8] | – | 2.5 ± 0.17 | – | 2.57 ± 0.11 |
| LQRDLFIRLPHWPLNWY [RGR1] | 2.05 ± 0.095 | 2.15 ± 0.061 | 2.11 ± 0.082 | 2.11 ± 0.076 |
| LPKIKTVRKSIACVLTV [RPL35A] | 1.98 ± 0.28 | 2.79 ± 0.18 | – | 2.17 ± 0.14 |
| MPPKFDPNEVKYLYLRA [RPL12A] | 2 ± 0.093 | 2.09 ± 0.17 | 2.98 ± 0.2 | 1.78 ± 0.079 |
| EDEEEFSIFNYFKMFPA [RPC34] | 3.27 ± 0.19 | 2.2 ± 0.1 | – | 2.46 ± 0.2 |
| QNIETRQLANLIPFIVK [NUT1] | 1.61 ± 0.054 | 1.58 ± 0.041 | 1.41 ± 0.086 | 1.63 ± 0.039 |
| LTKKKNEEINKKSLEED [SEM1] | – | 3.31 ± 0.11 | 2.77 ± 0.18 | – |
| QPTPRSASNTAKSTPNT [GAL11] | 2.75 ± 0.061 | 2.93 ± 0.05 | 2.75 ± 0.058 | 2.55 ± 0.048 |
| LGVEDITLIDSASLHLN [RET1] | 2.03 ± 0.063 | 1.61 ± 0.043 | 1.8 ± 0.1 | 1.8 ± 0.046 |
| KRFLILQGEVENIAQMK [SMC4] | 3.05 ± 0.29 | 2.98 ± 0.14 | 3.2 ± 0.14 | 2.79 ± 0.098 |
| NECIASTSNALKVLSGD [SNF12] | 2.89 ± 0.059 | 2.86 ± 0.07 | 2.86 ± 0.05 | 2.79 ± 0.062 |
| RLERRINLTKVTQKDIC [CSI1] | 2.88 ± 0.079 | 2.82 ± 0.13 | 3.18 ± 0.065 | 3.29 ± 0.12 |
| MTNLTYFLHLSVFNAEL [YCS4] | 1.62 ± 0.061 | 1.48 ± 0.047 | 1.87 ± 0.09 | 1.76 ± 0.073 |
| YLIKLLGFEVKDQALIG [SIR2] | 1.92 ± 0.061 | 2.08 ± 0.06 | 2.1 ± 0.061 | 2.73 ± 0.087 |
| ITIFSPEGRLYQVEYAF [SCL1] | 2.58 ± 0.15 | 2.6 ± 0.11 | 2.1 ± 0.092 | 2.37 ± 0.068 |
| DEFKDITKEVTQVNILK [YIL149C/MLP2] | 3.14 ± 0.082 | 3.2 ± 0.075 | 2.67 ± 0.14 | 3.3 ± 0.057 |
| DEDLLDTQTFSVLLQQL [YGL172W/NUP49] | 2.93 ± 0.059 | 2.81 ± 0.063 | 1.72 ± 0.11 | 2.57 ± 0.045 |
| EKNYDRKEPPATVEECV [PRE6] | 3.3 ± 0.14 | 3.29 ± 0.12 | 3.11 ± 0.079 | 3.3 ± 0.072 |
| DSENNEENSSSNGNNLP [RGR1] | 2.96 ± 0.061 | 2.96 ± 0.056 | 2.96 ± 0.055 | 3.06 ± 0.039 |
| STSYHLNSTLESLYDLI [MED6] | 2.86 ± 0.12 | 2.62 ± 0.094 | 3 ± 0.084 | 2.51 ± 0.12 |
| RNLNNLKQENAYLLIRR [RPB8] | 3.14 ± 0.072 | 3.16 ± 0.084 | 3.15 ± 0.071 | 3 ± 0.054 |
| SQHKKILEELDFVRNEL [SMC3] | 3.35 ± 0.14 | 3.09 ± 0.096 | 3.2 ± 0.08 | 3.01 ± 0.057 |
| NIDYQKGLLIWRLLFID [GRR1] | 1.9 ± 0.06 | 1.28 ± 0.063 | 1.22 ± 0.2 | 1.45 ± 0.068 |
